Data published in paper PMC8264439.
Where two headings read alike, the source gives them in different places.

Legend:
Assay in all cases: SEC; analytical Superdex 200 increase 10/300 GL; 180 μM protein in 50 μL injected; 20 mM Hepes (pH 7.5); 0.75 ml/min; 25°C; dimer to monomers
[1] = target: SARS-CoV-2 3CLpro C145S variant (SARS-CoV-2)
[2] = target: SARS-CoV-2 3CLpro C145S variant (SARS-CoV-2); remark: listed apart in the source
[3] = target: SARS-CoV-2 3CLpro C145A variant (SARS-CoV-2)
[4] = target: SARS-CoV-2 3CLpro C145A variant (SARS-CoV-2); remark: listed apart in the source
[5] = target: SARS-CoV-2 3CLpro H41D variant (SARS-CoV-2)
[6] = target: SARS-CoV-2 3CLpro H41E variant (SARS-CoV-2)
[7] = target: SARS-CoV-2 3CLpro H41A variant (SARS-CoV-2)

SARS-CoV-2 3CLpro C145S variant (enzyme)
stoichiometry N [1]: > 2
stoichiometry N [2]: 2

SARS-CoV-2 3CLpro C145A variant (enzyme)
stoichiometry N [3]: 2
stoichiometry N [4]: > 2

SARS-CoV-2 3CLpro H41D variant (enzyme)
stoichiometry N [5]: 2

SARS-CoV-2 3CLpro H41E variant (enzyme)
stoichiometry N [6]: 2

SARS-CoV-2 3CLpro H41A variant (enzyme)
stoichiometry N [7]: 2
